The values below come from publication PMC7857404.

The target in the assay is SARS-CoV-2-3Q-FL spike (without 2P) (SARS-CoV-2) (UniProt P0DTC2). As to the kind of experiment: cryo-EM structure.

For “SARS-CoV-2-3Q-FL spike (without 2P) (from UniProt P0DTC2 14-1273) (natural protein)”, the stoichiometry N is 3.

As usually defined, the stoichiometry N is a count of units in the complex or per binding partner.
